# Measurements taken from patent US20220251236A1 (Boehringer Ingelheim, published 2022).
# T1: human DLL3 (endogenous, on SCLC cell lines NCI-H82 and SHP77 and in SCLC tissue) (human, UniProt Q9NYJ7 27-618)
# T1 construct: whole, on cells; also called SCLC cell lines expressing DLL3
# T1 sequence (looked up): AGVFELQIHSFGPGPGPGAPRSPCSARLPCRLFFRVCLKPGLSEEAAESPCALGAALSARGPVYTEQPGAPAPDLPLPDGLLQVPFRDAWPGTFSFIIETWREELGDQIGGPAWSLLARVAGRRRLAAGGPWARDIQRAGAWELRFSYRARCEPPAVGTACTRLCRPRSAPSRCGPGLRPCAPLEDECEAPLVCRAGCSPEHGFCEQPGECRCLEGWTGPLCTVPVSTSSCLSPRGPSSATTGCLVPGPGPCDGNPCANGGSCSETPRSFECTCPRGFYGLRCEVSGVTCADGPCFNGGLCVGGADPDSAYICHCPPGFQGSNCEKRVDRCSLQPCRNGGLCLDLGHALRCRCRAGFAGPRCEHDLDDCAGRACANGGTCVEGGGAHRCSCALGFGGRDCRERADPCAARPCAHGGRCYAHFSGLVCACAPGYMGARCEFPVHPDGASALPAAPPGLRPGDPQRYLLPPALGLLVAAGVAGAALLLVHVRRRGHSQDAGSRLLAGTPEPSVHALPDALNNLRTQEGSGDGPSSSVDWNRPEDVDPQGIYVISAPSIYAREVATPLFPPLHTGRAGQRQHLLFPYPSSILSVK
# T2: Human DLL3-His (human, UniProt Q9NYJ7 27-492)
# T2 construct: also called huDLL3-His; hu DLL3
# T2 sequence: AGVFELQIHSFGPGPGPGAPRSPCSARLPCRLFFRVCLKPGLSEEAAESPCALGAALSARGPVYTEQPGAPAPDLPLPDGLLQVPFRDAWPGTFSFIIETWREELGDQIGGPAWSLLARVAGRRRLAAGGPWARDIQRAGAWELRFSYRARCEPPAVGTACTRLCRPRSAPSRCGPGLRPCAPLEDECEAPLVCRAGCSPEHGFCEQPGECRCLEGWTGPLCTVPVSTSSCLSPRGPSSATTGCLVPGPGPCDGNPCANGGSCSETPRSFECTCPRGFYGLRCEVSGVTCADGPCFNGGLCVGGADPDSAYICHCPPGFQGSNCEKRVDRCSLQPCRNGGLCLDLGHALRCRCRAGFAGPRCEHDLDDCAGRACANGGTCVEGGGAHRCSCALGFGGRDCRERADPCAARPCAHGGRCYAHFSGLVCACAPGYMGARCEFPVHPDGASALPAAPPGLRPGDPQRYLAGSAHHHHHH
# Key:
# [1] = target: T1, human DLL3 (endogenous, on SCLC cell …); experiment: flow cytometry on a DLL3-positive SCLC cell line (not named on the sheet), PE-conjugated anti-mouse secondary antibody
# From the text: Cells (T cells or human SCLC cells) were stained with increasing concentrations of anti-DLL3 antibody with increasing concentrations in FACS buffer (PBS/0.5% BSA/0.05% sodium azide).
# [2] = target: T2, Human DLL3-His; experiment: sandwich ELISA with ECL readout (MSD): anti-DLL3 antibody coated, recombinant DLL3 protein titrated; the concentration is that of DLL3 protein
# Protocol: Binding of antibodies was performed in an ELISA. In brief, anti-DLL3 antibodies were coated at a concentration of […] at 4° C. over night. After washing the plates were blocked with blocking buffer (Gibco, Gibco #043-90309A) for one hour at room temperature, followed by washing and incubation with recombinant DLL3 protein at increasing concentrations. For detection the bound DLL3 protein was incubated with a polyclonal anti-DLL3 antibody (R&D Systems, AB4315) followed by a SULFO-TAG labelled anti-goat antibody (R32AG-1) for one hour. The bound antibody was quantified by using a Read Buffer (MSD) in a Sector imager 6000 (MSD).
Binder,EC50 (read off the curve) [1],EC50 (read off the curve) [2],binding result [1]
"anti-DLL3 antibody DLL3#4 (antibody, V domains shown, detected with anti-mouse secondary antibody) VH: QVQLQQSGTELVKPGASVKLSCKASVYTFTSYFMYWVKQRPGHGLEWIGEISPTNGNSNLNERFKNKATLTVDKSSSTAYMQLSSLTSEDSAVYYCTRGGDGYLDYWGQGTTLTVSS VL: DIVLTQSPASLAVSLGQRATISCRASKSVSSFGYSFMHWYQQKPGQPPKLLIYLASNLESGVPARFSGSGSGTDFTLNIHPVEEEDAATYYCQHSRELPWTFGGGTKLEIK",~0.1 nM,~20 ng/mL,–
"anti-DLL3 antibody DLL3#5 (antibody, V domains shown, detected with anti-mouse reagents) VH: QVQLVQSGAEVKKPGASVKVSCKASGFTFTGYYIHWVRQAPGQGLEWMGWINPNSGGTNYAQKFQGRVTMTRDSSINTAFMELSRLTSDDTAVYYCAAGWDYWGQGTLVTVSS VL: not shown",~0.5 nM,~10 ng/mL,–
"anti-DLL3 antibody DLL3#3 (antibody, V domains shown, detected with anti-mouse secondary antibody) VH: QVQLVQSGAEVKKPGASVKVSCKASGYTFTSYYVHWVRQAPGQGLEWMVIINPGGGTTSYAQKFLGRVTMTRDTSTNTVYMELKSLRSEDTAVYYCARGEAVTGNYFYYGMDVWGQGTTVTVSS VL: DIQMTQSPSAMSASVGDRVTITCRASQGISNYLVWFQQKPGKAPKRLIYAVSSLYSGVPSRFSGSGSGTEFTLTISSLQPEDFATYYCLQHDSYPYTFGQGTKLEIK",–,~10 ng/mL,–

# The remaining lines, values ahead:
EC50 (read off the curve) [1],EC50 (read off the curve) [2],binding result [1],Binder
–,–,binds,"anti-DLL3 antibody DLL3#2 (antibody, V domains shown, detected with anti-mouse secondary antibody) VH: QVQLVQSGAEVKKPGASVKVSCKASGYTFTSYYMHWVRQAPGQGLEWMGIINPSGGSTSYAQKFQGRVTMTRDTSTSTVYMELSSLRSEDTAVYYCARGEAVGGNYYYYGMDVWGQGTTVTVSS VL: DIQMTQSPSAMSASVGDRVTITCRASQGISNYLAWFQQKPGKVPEPLIYAASSLQSGVPSRFSGSGSVTEFTLTISSLQPEDFATYYCLQHNSSPYTFGQGTKLEIK"
~0.4 nM,–,–,"anti-DLL3 antibody DLL3#6 (antibody, V domains shown, detected with anti-mouse secondary antibody) VH: QVQLQESGPGLVKPSETLSLTCTVSGGSISSYFWSWIRQPAGKGLEWIGRIYTSGSTNYNPSLNSRLTMSVDTSKNQFSLKLSSVTAADTAVYYCARRGDWGGFDIWGQGTVVTVSS VL: DIQLTQSPSFLSTSVGDRVTITCRASQDISNYFAWYQQKPGKAPKLLIYAASTLQSGVPSRFSGGGSGTEFTLTISSLQPEDFATYYCQQLNSYPYTFGQGTKLEIK"
